Measured values from paper PMC1794554, “Multiplatform genome-wide identification and modeling of functional human estrogen receptor binding sites”.
Where a chain is given by its changes, count along the chain named.

Tests used:
Conditions in all cases: chain copies: 2; label: 5'-biotin on the ERE strand; blunt
[1] = target: T1, estrogen receptor alpha (ERα), purified (UniProt P03372 1-595); assay: SPR; SPR: 40 mM HEPES-KOH pH 7.4, 10 mM MgCl2, 200 mM KCl, 0.2% Triton X-100, 2 mM DTT, room temperature; ERα 58-708 nM (relative binding averaged over concentrations)
[2] = target: T1, estrogen receptor alpha (ERα), purified; assay: SPR; not significantly perturbed; SPR: 40 mM HEPES-KOH pH 7.4, 10 mM MgCl2, 200 mM KCl, 0.2% Triton X-100, 2 mM DTT, room temperature; ERα 58-708 nM (relative binding averaged over concentrations)
[3] = target: T1, estrogen receptor alpha (ERα), purified; assay: SPR; binding disrupted by about 40%; SPR: 40 mM HEPES-KOH pH 7.4, 10 mM MgCl2, 200 mM KCl, 0.2% Triton X-100, 2 mM DTT, room temperature; ERα 58-708 nM (relative binding averaged over concentrations)

T1 sequence (P03372 whole entry): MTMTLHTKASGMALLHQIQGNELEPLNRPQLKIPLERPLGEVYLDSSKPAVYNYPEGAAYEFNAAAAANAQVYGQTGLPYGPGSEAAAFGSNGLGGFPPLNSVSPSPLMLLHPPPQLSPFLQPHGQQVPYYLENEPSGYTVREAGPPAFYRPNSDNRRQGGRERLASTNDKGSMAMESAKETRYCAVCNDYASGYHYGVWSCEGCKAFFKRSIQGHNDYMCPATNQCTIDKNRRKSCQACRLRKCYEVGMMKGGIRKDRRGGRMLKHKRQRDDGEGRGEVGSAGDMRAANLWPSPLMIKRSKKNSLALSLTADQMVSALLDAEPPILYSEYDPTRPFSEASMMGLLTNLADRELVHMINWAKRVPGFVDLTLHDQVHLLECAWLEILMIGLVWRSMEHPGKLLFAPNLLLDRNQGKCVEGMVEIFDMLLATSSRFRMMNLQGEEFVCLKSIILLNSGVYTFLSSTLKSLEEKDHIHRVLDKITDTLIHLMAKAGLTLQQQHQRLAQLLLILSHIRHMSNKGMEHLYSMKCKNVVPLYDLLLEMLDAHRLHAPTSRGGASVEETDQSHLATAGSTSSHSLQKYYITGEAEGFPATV

B1: GREB1 ERE wildtype (dsDNA)
DNA 1: TGTGGCAACTGGGTCATTCTGACCTAGAAGCAAC
DNA 2: GTTGCTTCTAGGTCAGAATGACCCAGTTGCCACA
Question: Which binding signal [1] does the source give for B1 here?
Answer: The binding signal was 100 % of wild type.

B2: mutant 4 (outside the 3-bp flank, C to G) (dsDNA)
DNA 1: B1 DNA 1 with C6G
DNA 2: B1 DNA 2 with G29C
Question: Does B2 bind [2]?
Answer: Result: binds

B3: mutant 1 (conserved 3' G to A) (dsDNA)
DNA 1: B1 DNA 1 with G27A
DNA 2: B1 DNA 2 with C8T
Question: With B3 as the binder, how does the binding signal [3] read?
Answer: The binding signal was ~60 % of wild type.
